Source: US6723833
Read-outs that look alike come from different tables or passages of the source.

Key:
[1] = molecular target: human IgE bound to FcεRI (IgE-loaded FcεRI α-chain on CHO 3D10 cells) (human) (UniProt P01854); assay: FACS on IgE-loaded CHO 3D10 cells (FIG. 4); isotype control
[2] = molecular target: human IgE bound to FcεRI (IgE-loaded FcεRI α-chain on CHO 3D10 cells) (human) (UniProt P01854); assay: FACS on IgE-loaded CHO 3D10 cells (FIG. 4)
[3] = molecular target: membrane IgE on U266B1 cells (human) (UniProt P01854); assay: FACS on U266B1 cells (membrane IgE+)
[4] = molecular target: human IgE bound to FcεRI (IgE-loaded FcεRI α-chain on CHO 3D10 cells) (human) (UniProt P01854); assay: cell-based or functional assay
[5] = molecular target: human IgE (affinity purified from U266B1 myeloma culture supernatant) (human) (UniProt P01854); assay: soluble receptor assay: inhibition of biotin-IgE binding to plate-coated FcεRI α-chain IgG chimera
[6] = molecular target: human IgE (affinity purified from U266B1 myeloma culture supernatant) (human) (UniProt P01854); assay: as above; remark: listed apart in the source
[7] = molecular target: human IgE (affinity purified from U266B1 myeloma culture supernatant) (human) (UniProt P01854); assay: equilibrium binding of 125I-IgE, Scatchard analysis

Chain of human IgE (affinity purified from U266B1 myeloma culture supernatant) (human) (P01854 whole entry, form in doubt, one chain of several): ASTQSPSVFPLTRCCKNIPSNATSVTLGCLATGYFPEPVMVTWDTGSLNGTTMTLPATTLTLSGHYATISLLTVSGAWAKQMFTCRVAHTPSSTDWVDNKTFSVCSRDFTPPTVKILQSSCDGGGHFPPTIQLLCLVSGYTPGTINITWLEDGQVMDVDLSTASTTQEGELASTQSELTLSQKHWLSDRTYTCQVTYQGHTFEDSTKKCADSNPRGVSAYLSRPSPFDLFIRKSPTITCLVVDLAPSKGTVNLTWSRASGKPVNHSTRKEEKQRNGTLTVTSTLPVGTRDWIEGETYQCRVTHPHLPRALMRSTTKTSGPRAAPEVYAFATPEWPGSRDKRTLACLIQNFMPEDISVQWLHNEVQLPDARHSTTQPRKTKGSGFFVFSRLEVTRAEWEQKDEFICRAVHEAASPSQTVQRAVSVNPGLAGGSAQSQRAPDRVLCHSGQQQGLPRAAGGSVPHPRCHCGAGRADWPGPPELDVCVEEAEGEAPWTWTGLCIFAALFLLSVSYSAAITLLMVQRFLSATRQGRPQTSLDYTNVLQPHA
Chain of human IgE bound to FcεRI (IgE-loaded FcεRI α-chain on CHO 3D10 cells) (human) (P01854 whole entry, chain 1 of 2): as the sequence (P01854 whole entry, form in doubt, one chain of several) above
Chain of human IgE bound to FcεRI (IgE-loaded FcεRI α-chain on CHO 3D10 cells) (human) (P12319 26-257, chain 2 of 2, further chain): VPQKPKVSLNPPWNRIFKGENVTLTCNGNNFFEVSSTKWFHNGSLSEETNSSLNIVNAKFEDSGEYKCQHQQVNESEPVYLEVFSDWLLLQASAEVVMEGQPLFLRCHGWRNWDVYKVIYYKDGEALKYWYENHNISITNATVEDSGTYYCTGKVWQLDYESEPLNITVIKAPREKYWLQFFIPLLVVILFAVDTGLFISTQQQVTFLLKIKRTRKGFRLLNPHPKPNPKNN
Chain of membrane IgE on U266B1 cells (human) (P01854 whole entry, one chain of several): as the sequence (P01854 whole entry, form in doubt, one chain of several) above

| nonspecific background binding [1] [%] | mean channel fluorescence at 0.1 µg/ml (mean channel fluorescence) [2] | EC50 [3] [µg/mL] | PBL histamine release (EC50), IgE-loaded peripheral blood basophils [4] [µg/mL] | IC50 [5] [µg/mL] | ratio Variant X/IgG1-2 [5] | ratio Variant X/MaE11 [5] | IC50 [6] [µg/mL] | ratio F(ab)-X/F(ab)-2 [6] | ratio F(ab)-X/MaE11 [6] | Kd [7] [nM] | Molecule |
| --- | --- | --- | --- | --- | --- | --- | --- | --- | --- | --- | --- |
| 10 | 7.3 |  |  |  |  |  |  |  |  |  | MOPC21 (antibody) |
|  | 6.4 | 0.15 | > 100 | 0.449 | 0.06 | 1 | 0.179 | 0.03 | 1 | 30 | MaE11 (antibody, mouse IgG1, V domains shown) VH: DVQLQESGPGLVKPSQSLSLACSVTGYSITSGYSWNWIRQFPGNKLEWMGSITYDGSSNYNPSLKNRISVTRDTSQNQFFLKLNSATAEDTATYYCARGSHYFGHWHFAVWGAGTTVTVSS VL: DIQLTQSPASLAVSLGQRATISCKASQSVDYDGDSYMNWYQQKPGQPPILLIYAASYLGSEIPARFSGSGSGTDFTLNIHPVEEEDAATFYCQQSHEDPYTFGAGTKLEIK |
